How the values were obtained:
[1] = test system: S. aureus NRS-14 (VISA strain); assay: bactericidal analysis (CFU counts, MBC); type: cell-based, Staphylococcus aureus; conditions: 1 hour, stationary phase
Method: Sterile-filtered PlyGRCS was 2-fold serially diluted in PBS supplemented with 1 mM CaCl2 and an equal volume of either various concentrations of enzyme or buffer only was added to 10^5 S. aureus NRS-14 in a microtiter plate. Samples were incubated at 37° C. for 1 hour, then serially diluted, plated on TSB agar, and incubated overnight at 37° C. to obtain CFU counts. The MBC (minimum bactericidal concentration) was determined as the minimum concentration of enzyme that killed ≧99.9% of bacteria.
It has been noted that the minimal inhibitory concentration (MIC) assay may not be the most appropriate assay to measure endolysin efficacy due to the speed at which the enzyme acts (Kusuma C M et al. (2005) Comparison of four methods for determining lysostaphin susceptibility of various strains of Staphylococcus aureus. Antimicrobial agents and chemotherapy 49(8):3256-63). Therefore, we employed the minimum bactericidal concentration (MBC) assay, which is the lowest concentration of enzyme that kills ≧99.9% (i.e. 3 logs) of the test inoculum (Jones R et al. (1985) Susceptibility tests: microdilution and macrodilution broth procedures. In: Balows A, Hausler J, Shadomy H (eds) Manual of Clinical Microbiology. American Society for Microbiology, Washington, D.C., pp 972-7).

[2] = test system: Streptococcus uberis, ATCC 700407; assay: plate lysis assay (spectrum of lytic activity); type: cell-based; parameters: key: strong lytic zone = ++; weak lytic zone = +; no lytic zone = −; conditions: 6 μg
Method: (§1) The PlyGRCS spectrum of lytic activity was performed (Schmelcher M et al. (2012) Chimeric phage lysins act synergistically with lysostaphin to kill mastitis-causing Staphylococcus aureus in murine mammary glands. Appl Environ Microbiol 78(7):2297-305) with minor modifications. Bacterial cells were diluted in sterile PBS to an OD600=1, and 100 μl was spread on each plate. 10 μl spots (600 μg/ml) of PlyGRCS or CHAPGRCS were applied. Plates were incubated overnight at 37° C. Strength of lytic zones was defined qualitatively.

[3] = test system: Bacillus pumulis, BJ0055; assay: plate lysis assay (spectrum of lytic activity); type: cell-based; parameters: key: strong lytic zone = ++; weak lytic zone = +; no lytic zone = −; conditions: 6 μg
Method: as §1

[4] = test system: Streptococcus suis, 730082; assay: plate lysis assay (spectrum of lytic activity); type: cell-based; parameters: key: strong lytic zone = ++; weak lytic zone = +; no lytic zone = −; conditions: 6 μg
Method: as §1

[5] = test system: Enterococcus facealis, EF24; assay: plate lysis assay (spectrum of lytic activity); type: cell-based; parameters: key: strong lytic zone = ++; weak lytic zone = +; no lytic zone = −; conditions: 6 μg
Method: as §1

[6] = test system: Streptococcus pneumoniae, ATCC BAA-334; assay: plate lysis assay (spectrum of lytic activity); type: cell-based; parameters: key: strong lytic zone = ++; weak lytic zone = +; no lytic zone = −; conditions: 6 μg
Method: as §1

[7] = test system: Staphylococcus aureus, NRS-385; assay: plate lysis assay (spectrum of lytic activity); type: cell-based; parameters: key: strong lytic zone = ++; weak lytic zone = +; no lytic zone = −; conditions: 6 μg; S. aureus NRS-385, MRSA
Method: as §1

[8] = test system: Streptococcus pyogenes, D471; assay: plate lysis assay (spectrum of lytic activity); type: cell-based; parameters: key: strong lytic zone = ++; weak lytic zone = +; no lytic zone = −; conditions: 6 μg
Method: as §1

[9] = test system: SA113 ΔtagO cell walls (staphylococcal peptidoglycan); assay: cleavage analysis by mass spectrometry; type: biochemical, Staphylococcus aureus; conditions: 50 μg/ml, 18 hours, ESI-MS of digest
Method: Briefly, SA113 ΔtagO cell walls (Atilano M L et al. (2010) Teichoic acids are temporal and spatial regulators of peptidoglycan cross-linking in Staphylococcus aureus. Proc Natl Acad Sci USA 107(44):18991-6; Weidenmaier C et al. (2004) Role of teichoic acids in Staphylococcus aureus nasal colonization, a major risk factor in nosocomial infections. Nat Med 10(3):243-5) were digested in 25 mM Tris, 200 mM NaCl, pH 7.4 at 37° C. for 18 hours with 50 μg/ml of PlyGRCS, filtered through 5000-MW cutoff Vivaspin 500 units (Sartorius North America Inc., Bohemia, N.Y.), and desalted using C18 Zip Tips (Millipore, Zug, Switzerland). Controls included peptidoglycan digested with the amidase domain of 2638A, a known N-acetylmuramoyl-L-alanine amidase, or undigested peptidoglycan. To further define the PlyGRCS cut site, double digests with PlyGRCS and a truncation construct containing only the CHAP domain of LysK (CHAP-K), a D-alany-glycyl endopeptidase were performed. The samples were eluted from the Zip Tips with 50:50:0.01 (v/v/v) CH3OH:H2O:[…] (pH˜2), and NanoESI-MS analysis was performed on a Q-TOF Ultima API mass spectrometer (Micromass, UK).

[10] = test system: S. aureus cell walls (purified peptidoglycan); conditions: 50 μg/ml, one hour, 37° C.
[11] = test system: stationary phase S. aureus NRS-14; assay: kinetic stability (lytic assay after incubation at indicated temperatures); type: cell-based, Staphylococcus aureus; conditions: 25 μg/ml
Method: Lytic activity was based on turbidity reduction assay (Nelson D C et al. (2012) Endolysins as antimicrobials. Adv Virus Res 83:299-365). Briefly, bacterial cells were centrifuged (4,000 RPM, 5 minutes, 4° C.), re-suspended in buffer and mixed 1:1 (v/v) with endolysin to a final OD600=1. OD600 readings were taken every 15 seconds for 20 minutes at 37° C. Endolysin activity was equated to the Vmax dictated by the linear portion of the resulting killing curve. Each experiment was performed in triplicate.
To determine dose response, PlyGRCS was serially diluted and each dosage (100 μl) was added in triplicate to a 96-well polystyrene microtiter plate (Nest Biotech Co, Ltd) just before addition of bacterial cells (100 μl) according to the turbidity reduction assay described above. For optimum pH determination, bacterial cells were suspended in 40 mM boric acid/phosphoric acid (BP) buffer, pH 3-11, and were challenged against PlyGRCS. The influence of NaCl on PlyGRCS activity was tested in BP buffer at the experimentally determined pH optimum using the same assay. The effect of divalent cations was determined using the turbidity reduction assay with several modifications. […] Kinetic stability was evaluated (Son B et al. (2012) Characterization of LysB4, an endolysin from the Bacillus cereus-infecting bacteriophage B4. BMC Microbiol 12:33) with minor modifications. […]

B1: PlyGRCS: endolysin of bacteriophage GRCS (ORF15), amino acids 1-250, SEQ ID NO: 5, C-terminal 6× His tag (protein)
chain: MKSQQQAKEWIYKHEGTGVDFDGAYGFQCMDLAVAYVYYITDGKVRMWGNAKDAINNDFKGLATVYENTPSFKPQLGDVAVYTNSQYGHIQCVISGNLDYYTCLEQNWLGGGFDGWEKATIRTHYYDGVTHFIRPKFSASNSNVLETSKVNTFGNWKQNQYGTYYRNENATFTCGFLPIFARVGSPKLSEPNGYWFQPNGYTPYDEVCLSDGLVWIGYNWQGTRYYLPVRQWNGKTGNSYSIGLPWGVFS
modifications: C-terminal 6xHis tag; Synthetically generated polypeptide (PlyGRCS phage (S. aureus))
reduction of bacterial counts ([1]; 6.25 μg/ml): 2 logs | log decrease ([1]; 12.5 μg/ml): 2.5 log | log killing ([1]; 25 μg/ml): 3 log | strength of lytic zone [2]: − | strength of lytic zone [3]: − | strength of lytic zone [4]: − | strength of lytic zone [5]: − | strength of lytic zone [6]: − | strength of lytic zone [7]: + | strength of lytic zone [8]: − | hydrolytic activities (cleavage specificity) [9]: both N-acetylmuramoyl-L-alanine amidase and D-alanyl-glycyl endopeptidase hydrolytic activities | free amine release (amidase/endopeptidase activity) [10]: free amines were detected | residual lytic activity ([11]; after 30 minutes at 4° C. to 37° C.): > 90% | lytic activity after heating (in words) ([11]; after 30 minutes at ≧40° C.): lytic activity was not observed
